The values that follow come from paper PMC6109925, “Structural and functional analysis of cystatin E reveals enzymologically relevant dimer and amyloid fibril states” (The Journal of Biological Chemistry, 2018).

Bounds are passed on as bounds.

In data set [1] the target is glycosylated human cystatin E (human) (UniProt Q15828). In words: SEC; S75 10/300 GL, 20 mM citric acid pH 5.5, 100 mM NaCl; sample incubated 10 min at ≥70 °C (70, 80 or 85 °C), pH 5.5, then chilled on ice; monomer to dimer.
Data set [2] concerns the target human legumain, wild type, activated (human) (UniProt Q99538). Kind of data set: SEC; S200 10/300 GL; legumain (0.5 mg/ml) incubated with dimeric hCE 1:1 (1 AEP and 1 hCE dimer) or monomeric hCE 1:2 at pH 5.5 for 10 min on ice; fractions on SDS-PAGE. The note with it: scale: hCE chains per legumain.
Data set [3] has the same target. Kind of data set: enzyme inhibition kinetics (Morrison equation for tight binding inhibitors); 50 mM citric acid pH 5.5, 100 mM NaCl, 0.05% Tween 20; 100 μM Z-AAN-AMC, 0.01 to 5 nM hCE, 2 nM legumain, 37 °C; triplicates.
Data set [4] has as its target human cystatin E, full-length wild type, monomeric (human) (UniProt Q15828). In words: SEC; S75 10/300 GL; WT cystatin E incubated at 60 °C in citric acid buffer at pH 3.0 before injection; monomer to dimer. Background: In gel filtration, larger molecules generally elute earlier.
For data set [5] the target is unchanged. Kind of data set: thioflavin T fluorescence; fibril formation after 10 min at 80 °C, 10 mg/ml, 50 mM citric acid, 100 mM NaCl (pH 3–6) or 50 mM Tris, 100 mM NaCl (pH 7.0); ThT fluorescence at 482 nm.
Data set [6] shares this target. In words: SEC; S75 10/300 GL, 20 mM citric acid pH 5.5, 100 mM NaCl; sample incubated 10 min at ≥70 °C (70, 80 or 85 °C), pH 5.5, then chilled on ice; monomer to dimer.
Data set [7] deals with the molecule itself. Described as above.
Data set [8] deals with the molecule itself. In words: SEC; S75 10/300 GL, 20 mM citric acid pH 5.5, 100 mM NaCl, 250 μl sample; no destabilising heat (ΔhCE kept at 4 °C and 37 °C before injection); oligomerisation state.

human legumain, wild type, activated (human), sequence (Q99538 18-323): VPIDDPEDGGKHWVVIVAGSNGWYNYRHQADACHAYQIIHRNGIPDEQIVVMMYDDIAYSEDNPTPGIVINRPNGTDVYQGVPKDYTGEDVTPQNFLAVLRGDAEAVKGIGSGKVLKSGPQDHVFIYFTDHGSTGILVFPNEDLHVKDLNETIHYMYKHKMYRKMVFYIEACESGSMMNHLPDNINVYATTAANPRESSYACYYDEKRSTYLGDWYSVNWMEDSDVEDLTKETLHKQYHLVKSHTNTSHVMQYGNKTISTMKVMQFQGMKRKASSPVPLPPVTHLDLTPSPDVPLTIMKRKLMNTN

Regarding “glycosylated human cystatin E (from UniProt Q15828 29-149) (natural protein)”, the stoichiometry N in data set [1] was determined as 2.
As to “dimeric human cystatin E (domain-swapped dimer) (from UniProt Q15828 29-149) (complex)”, the stoichiometry N in data set [2] is 2. This molecule also returned a Ki in data set [3] of 0.0135 nM.
Regarding “human cystatin E, full-length wild type, monomeric (from UniProt Q15828 29-149) (natural protein)”, the stoichiometry N in data set [4] came to 2. This molecule had a fold increase in ThT signal after incubation at pH 3.0 in data set [5] of 4 fold. In addition, in data set [6], the percent converted to the dimer at 70 °C was more than 90% and the stoichiometry N came to 2. Besides, the Ki in data set [3] turned out to be 0.0107 nM.

B1: human cystatin C, wild type (natural protein, UniProt P01034 27-146, looked up)
chain: SSPGKPPRLVGGPMDASVEEEGVRRALDFAVGEYNKASNDMYHSRALQVVRARKQIVAGVNYFLDVELGRTTCTKTQPNLDNCPFHDQPHLKRKAFCSFQIYAVPWQGTMTLSKSTCQDA
notes: N terminus Ser1 after removal of the pelB leader. numbers count on: the mature protein; Called 'untagged hCC' in the pull-down (it has no Strep-tag), while the methods give a C-terminal His6 tag for the expression constructs; also called hCC; WT cystatin C; source: E. coli Bl21(DE3), periplasm (pelB leader), purified (nickel-nitrilotriacetic acid resin, SEC)
With B1, in data set [7], the “stoichiometry N” value came out at 2.

B2: N-terminally truncated human cystatin E, Δ(Arg4–Leu13)hCE (domain or fragment)
chain: MELSPDDPQVQKAAQAAVASYNMGSNSIYYFRDTHIIKAQSQLVAGIKYFLTMEMGSTDCRKTRVTGDHVDLTTCPLAAGAQQEKLRCDFEVLVVPWQNSSQLLKHNCVQM
Turning to B2, the “stoichiometry N” value in data set [8] amounted to 2.

A word on the stoichiometry N: it is the number of molecules, sites or subunits per partner or assembly. A word on the Ki: it is the dissociation constant of the complex between target and ligand, obtained from inhibition or displacement.
